Key:
Details in all cases: tags: Alexa Fluor 647 label (SA-alexa647); chain copies: 4
streptavidin (SA) [1] = biological target: T1, streptavidin (SA) (UniProt P22629 P22629:25-183); assay: flowcell clusters in mixture library; signal graded with 1.95-500 nM SA-alexa647, weak below 31 nM
Procedure: (3) Into the four flow channels of the sequencing flowcell (L1, L2, L3, and L4 respectively), SA-alexa647 at concentrations of 500 nmol/L, 125 nmol/L, 31.25 nmol/L, and 1.95 nmol/L was introduced, respectively, and the flowcell was incubated for 30 minutes for in situ hybridization. After incubation, 300 μL of PBST was used to wash the channels to remove unreacted fluorescently labeled SA-alexa647.

streptavidin (SA) [2] = biological target: T1, streptavidin (SA); assay: NY selection: no signal with 500 nM SA alone
Procedure: (3) After sequencing was completed, target protein SA at a concentration of 500 nmol/L and a combination of target proteins SA and 3RA at 500 nmol/L each were sequentially introduced into the flowcell, followed by incubation. After each incubation was completed, 300 μL of PBST was used to wash the channels. After washing was completed, a 640 nm laser was used for excitation, and the surface of the solid carrier was imaged to collect the corresponding emission signals. Before introducing the next target at each time, the channels were washed with 750 μL of NaOH to remove the previously bound target.

streptavidin (SA) [3] = biological target: T1, streptavidin (SA); assay: 0 of 2808 (30% mix) and 2 of 575 (10% mix) target-bound clusters were reverse strand

T1 sequence (P22629 25-183, one chain of several): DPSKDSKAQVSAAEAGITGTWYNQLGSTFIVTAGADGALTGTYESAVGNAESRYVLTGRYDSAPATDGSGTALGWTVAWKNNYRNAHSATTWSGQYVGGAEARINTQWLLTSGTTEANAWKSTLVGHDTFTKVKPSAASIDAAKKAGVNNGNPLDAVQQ

Binder	binding result (streptavidin (SA) [2])	further results
tagged SA-positive aptamer (GGCTAC tag) (ssDNA) DNA: GGCTACAGCAGCACAGAGGTCAGATGGACGCACCGATCGCAGGTTCCGAAATGACTACTTGGTTGCCTATGCGTGCTACCGTGAAGGCTAC	–	binding result (streptavidin (SA) [1]): binds
3RA positive aptamer sequence 1 (ssDNA) DNA: TCACGGTAGCACGCATAGGGGAGGATTCCGACTAAGTTTCCGTCGCATGAGCGTTGCTATGCGTGGAGTGCTGAAGTTGGC	no binding	–
3RA positive aptamer sequence 3 (ssDNA) DNA: CACGGTAGCACGCATAACGCCGAGTTCCATTATAAAGTCCGCGCCCGACTACCCCCGTTATGCGTGGAGTGCTGGACATGC	no binding	–
3RA positive aptamer sequence 2 (ssDNA) DNA: CGAAGTTCAGCACTCCACGCATAGCCCTCGGAGGTCTACGAGAATGCCTACAGCCCTGTGCCCTATGCGTGCTACCGTGAA	no binding	–
3RA positive aptamer sequence 4 (ssDNA) DNA: AATGGTCCAGCACTCCACGCATAACGAATAGGTCCTAAACGAGGGGTCAGGGAAGTCGCCGGTTATGCGTGCTACCGTGAA	no binding	–
SA-positive aptamer reverse strand (ssDNA, [NONE]) DNA: TTCACGGTAGCACGCATAGGCAACCAAGTAGTCATTTCGGAACCTGCGATCGGTGCGTCCATCTGACCTCTGTGCTGCT	–	binding result (streptavidin (SA) [3]): no binding
